From the Immune Epitope Database (IEDB) come the findings set out here.

pKd: −log10 of the molar value. A value given as a limit tells only on which side of the number the result lay.

Assay [1] addresses HLA-B*18:01. Nature of the assay: IEDB peptide-MHC binding, purified MHC/competitive/radioactivity; filed as Kd, often an IC50 or EC50 that approximates it; ≥ and ≤ were set here for values at or beyond the usual limits of such assays.
For assay [2], the target named is HLA-B*40:01. The description is as above.
Assay [3] concerns the target HLA-B*40:02. The assay is described as above.
In assay [4] the target is HLA-B*44:02. Described as above.
Assay [5] has as its target HLA-B*44:03. Described as above.
The target in assay [6] is HLA-B*45:01. The assay is described as above.
Assay [7] deals with HLA-A*01:01. Put plainly: IEDB peptide-MHC binding, purified MHC/direct/fluorescence; filed as Kd, often an IC50 or EC50 that approximates it; ≥ and ≤ were set here for values at or beyond the usual limits of such assays. Conditions: source organism: Shewanella violacea.
Assay [8] addresses HLA-A*02:01. The assay is described as above. Conditions: source organism: Shewanella violacea.
Assay [9] addresses HLA-A*03:01. Described as above. Conditions: source organism: Shewanella violacea.
The target in assay [10] is HLA-A*11:01. Described as above. Conditions: source organism: Shewanella violacea.
The target of assay [11] is HLA-A*26:01. The description is as above. Conditions: source organism: Haemophilus influenzae.
Assay [12] has as its target HLA-A*31:01. The assay is described as above. Conditions: source organism: Shewanella violacea.
Assay [13] concerns the target HLA-A*69:01. The description is as above. Conditions: source organism: Shewanella violacea.
Assay [14] concerns the target HLA-B*07:02. Described as above. Conditions: source organism: Shewanella violacea.
The target of assay [15] is HLA-B*08:01. The assay is described as above. Conditions: source organism: Haemophilus influenzae.
Assay [16] has as its target HLA-B*27:05. The description is as above. Conditions: source organism: Shewanella violacea.
Assay [17] has as its target HLA-B*40:01. The description is as above. Conditions: source organism: Shewanella violacea.
For assay [18], the target named is HLA-B*58:01. Described as above. Conditions: source organism: Shewanella violacea.
Assay [19] addresses HLA-A*26:01. Put plainly: IEDB peptide-MHC binding, purified MHC/competitive/fluorescence; filed as Kd, often an IC50 or EC50 that approximates it; ≥ and ≤ were set here for values at or beyond the usual limits of such assays. Conditions: source organism: Bacillus anthracis str. A2012.
The mark [20] stands for this setting: source organism: Lassa virus Josiah.
Setting [21] is: source organism: Mammarenavirus lassaense.
Where [22] appears, read: source organism: SARS coronavirus Tor2.
The mark [23] stands for this setting: source organism: Mammarenavirus machupoense.
Where [24] appears, read: source organism: Mammarenavirus tacaribeense.
[25] abbreviates: source organism: Mammarenavirus guanaritoense.
The mark [26] stands for this setting: source organism: Mammarenavirus brazilense.

One may read the pKd as the Kd on a negative log10 scale, so that one unit is a factor of ten.

Take AEAQMSIQL: the pKd is ≤ 4.63 in assay [1] (setting [20]); 7.64 in assay [2] (setting [20]); 7.90 in assay [3] (setting [20]); 7.43 in [4] (setting [20]); 6.97 in assay [5] (setting [20]); 6.61 in [6] (setting [20]).
With DEILLDGGAS, the pKd is 7.15 in assay [1] (setting [21]); ≤ 4.37 in assay [2] (setting [21]); 6.04 in assay [3] (setting [21]); ≤ 5.00 in assay [4] (setting [21]); ≤ 4.59 in [5] (setting [21]); 5.23 in assay [6] (setting [21]).
Regarding DEWSVATFY, the pKd in assay [1] (setting [22]) is 8.55; in assay [2] (setting [22]), ≤ 4.12; in assay [3] (setting [22]), ≤ 4.11; in [4] (setting [22]), 6.50; in assay [5] (setting [22]), 7.98; in [6] (setting [22]), ≤ 4.11.
Turning to EELSLMYETL, the pKd in assay [1] (setting [23]) is 5.61; in [2] (setting [23]), 4.98; in assay [3] (setting [23]) it was 6.96; in assay [4] (setting [23]) it was 5.81; in [5] (setting [23]), 5.88; in assay [6] (setting [23]), 6.02.
For EEVPTLIKTL, the pKd is ≤ 4.15 in [1] (setting [24]); 5.12 in assay [2] (setting [24]); 5.20 in assay [3] (setting [24]); 5.07 in assay [4] (setting [24]); 5.48 in [5] (setting [24]); 5.52 in assay [6] (setting [24]).
Regarding ETKGKRRLL, the pKd in assay [7] was ≤ 4.70; in assay [8], ≤ 4.70; in [9] it was ≤ 4.70; in assay [10], ≤ 4.70; in assay [11], 5.15; in assay [12] it was ≤ 4.70. For the same sequence, the pKd was ≤ 4.70 in assay [13]; ≤ 4.70 in assay [14]; 5.13 in assay [15]; ≤ 4.70 in [16]; ≤ 4.70 in assay [17]; ≤ 4.70 in assay [18].
In the case of FEEALNVALA, the pKd in assay [1] (setting [25]) was 7.00; in assay [2] (setting [25]) it was 5.25; in assay [3] (setting [25]) it was 6.55; in [4] (setting [25]), ≤ 4.15; in assay [5] (setting [25]) it was ≤ 4.15; in [6] (setting [25]) it was 7.05.
On to GECPKFVFPL, for which the negative-log Kd (pKd) in assay [1] (setting [22]) was ≤ 4.15; in [2] (setting [22]), 8.56; in assay [3] (setting [22]), 8.89; in assay [4] (setting [22]) it was 6.02; in assay [5] (setting [22]), 6.17; in [6] (setting [22]), 5.44.
For the sequence GEILLLEWL, the pKd was 5.30 in assay [1] (setting [22]); 9.44 in assay [2] (setting [22]); 4.71 in [3] (setting [22]); 8.03 in assay [4] (setting [22]); 8.82 in [5] (setting [22]); 6.07 in [6] (setting [22]).
Turning to IDPLIVSTS, the pKd was ≤ 4.11 in assay [1] (setting [26]); ≤ 4.32 in [2] (setting [26]); 5.34 in [3] (setting [26]); ≤ 4.11 in assay [4] (setting [26]); 4.74 in assay [5] (setting [26]); 4.72 in [6] (setting [26]).
In the case of IEELFYSYAT, the pKd in assay [1] (setting [22]) is 6.10; in [2] (setting [22]), 5.82; in assay [3] (setting [22]), 7.28; in assay [4] (setting [22]), 6.49; in [5] (setting [22]) it was 6.69; in [6] (setting [22]) it was 7.97.
Consider IVIAPAMGM, for which the pKd in assay [19] is ≤ 4.70.
Turning to KEFTRPLISG, the pKd is ≤ 4.15 in assay [1] (setting [22]); 5.80 in [2] (setting [22]); 4.71 in [3] (setting [22]); 5.00 in assay [4] (setting [22]); 5.58 in assay [6] (setting [22]).
